Assay [1] concerns the target human FcγRIIb (human) (UniProt P31994). As to the kind of experiment: SPR (IBIS MX96), FcγR captured on sensor, full-length IgG1 titrated, pH 7.4, equilibrium 1:1 fit.
In assay [2] the target is human FcγRIIa-131R (human) (UniProt P12318). The assay is described as above.
Assay [3] addresses human FcγRIIIb-NA1 (human) (UniProt O75015). Described as above.
Assay [4] has as its target human FcγRIIa-131H (human) (UniProt P12318). The description is as above.
Assay [5] has as its target human FcγRIa (human) (UniProt P12314). Described as above.
Assay [6] has as its target human FcγRIIb (human) (UniProt P31994). As to the kind of experiment: SPR (IBIS MX96), FcγR captured on sensor, full-length IgG1 titrated, pH 6.0, equilibrium 1:1 fit.
For assay [7], the target named is human FcγRIIIa-158V (human) (UniProt P08637). Described as above.
Assay [8] concerns the target human FcγRIIa-131R (human) (UniProt P12318). The description is as above.
Assay [9] addresses human FcγRIIIb-NA1 (human) (UniProt O75015). The assay is described as above.
The target of assay [10] is human FcγRIIa-131H (human) (UniProt P12318). The assay is described as above.
Assay [11] deals with human FcγRIa (human) (UniProt P12314). Described as above.
Assay [12] concerns the target human FcγRIIIb-NA2 (human) (UniProt O75015). As to the kind of experiment: SPR (IBIS MX96), FcγR captured on sensor, full-length IgG1 titrated, pH 7.4, equilibrium 1:1 fit.
In assay [13] the target is human FcγRIIIa-158V (human) (UniProt P08637). The description is as above.
The target of assay [14] is human FcγRIIIa-158F (human) (UniProt P08637). Described as above.
The target in assay [15] is human FcγRIIIb-NA2 (human) (UniProt O75015). Put plainly: SPR (IBIS MX96), FcγR captured on sensor, full-length IgG1 titrated, pH 6.0, equilibrium 1:1 fit.
For assay [16], the target named is human FcγRIIIa-158F (human) (UniProt P08637). The description is as above.

The values that follow come from patent publication US20250101111A1.

What is called Kd is the constant that tells how readily two partners part at equilibrium. Lower therefore signals tighter binding.

Some results are limits rather than exact numbers.

Chain of human FcγRIIIa-158V (human) (P08637 17-208 F176V limits assumed): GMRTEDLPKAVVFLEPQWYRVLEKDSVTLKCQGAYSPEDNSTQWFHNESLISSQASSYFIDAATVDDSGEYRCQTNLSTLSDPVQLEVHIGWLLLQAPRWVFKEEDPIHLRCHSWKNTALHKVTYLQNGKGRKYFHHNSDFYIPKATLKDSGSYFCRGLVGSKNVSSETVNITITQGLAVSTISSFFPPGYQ
Chain of human FcγRIIb (human) (P31994 43-217 limits assumed): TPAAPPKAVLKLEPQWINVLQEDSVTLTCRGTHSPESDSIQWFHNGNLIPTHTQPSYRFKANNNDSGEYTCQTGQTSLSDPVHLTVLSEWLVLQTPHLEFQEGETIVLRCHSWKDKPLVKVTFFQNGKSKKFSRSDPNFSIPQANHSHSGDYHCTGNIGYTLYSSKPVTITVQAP
Chain of human FcγRIa (human) (P12314 16-288 limits assumed): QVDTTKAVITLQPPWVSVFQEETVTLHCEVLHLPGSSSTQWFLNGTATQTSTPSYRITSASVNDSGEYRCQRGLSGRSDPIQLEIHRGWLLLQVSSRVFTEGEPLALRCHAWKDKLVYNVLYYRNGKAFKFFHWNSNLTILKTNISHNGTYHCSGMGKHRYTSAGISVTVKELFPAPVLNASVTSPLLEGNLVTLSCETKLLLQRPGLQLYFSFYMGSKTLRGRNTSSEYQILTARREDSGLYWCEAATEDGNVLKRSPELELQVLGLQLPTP
Chain of human FcγRIIIb-NA1 (human) (O75015 other isoform, or with tags, fused parts or gaps limits assumed): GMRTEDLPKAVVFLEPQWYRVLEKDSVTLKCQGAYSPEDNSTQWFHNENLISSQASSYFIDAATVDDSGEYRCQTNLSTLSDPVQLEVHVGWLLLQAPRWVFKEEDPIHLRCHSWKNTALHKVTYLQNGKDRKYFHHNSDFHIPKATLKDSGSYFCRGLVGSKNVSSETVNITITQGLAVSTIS
Chain of human FcγRIIa-131H (human) (P12318 34-218 limits assumed): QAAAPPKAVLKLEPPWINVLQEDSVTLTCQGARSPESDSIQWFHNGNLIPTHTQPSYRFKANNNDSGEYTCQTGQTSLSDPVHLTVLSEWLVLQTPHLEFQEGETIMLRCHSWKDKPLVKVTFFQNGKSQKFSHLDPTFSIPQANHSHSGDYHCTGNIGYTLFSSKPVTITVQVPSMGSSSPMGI
Chain of human FcγRIIIb-NA2 (human) (O75015 17-200 N65S limits assumed): as the sequence (O75015 other isoform, or with tags, fused parts or gaps limits assumed) above, with R20S, N49S, D66N, V90I counted along it
Chain of human FcγRIIa-131R (human) (P12318 34-218 H167R limits assumed): as the sequence (P12318 34-218 limits assumed) above, with H134R counted along it
Chain of human FcγRIIIa-158F (human) (P08637 17-208 limits assumed): as the sequence (P08637 17-208 F176V limits assumed) above, with V160F counted along it

Turning to IgG1-G236A (antibody), the Kd in assay [1] is above 2000 nM; in [2], 241 nM; in assay [3], above 2000 nM; in assay [4] it was 126 nM; in assay [5], 13.2 nM; in [6], above 2000 nM. The Kd in assay [7] was 491 nM; in assay [8], 358 nM; in [9] it was above 2000 nM; in assay [10], 141 nM; in assay [11], 63.3 nM.
Take IgG1-WT (antibody): the equilibrium dissociation constant (Kd) in assay [12] was above 2000 nM; in [1], above 2000 nM; in [13], 382 nM; in [2], 953 nM; in assay [14], above 2000 nM; in assay [3], above 2000 nM. Also, the dissociation constant Kd in [4] is 668 nM; in [5] it was 7.1 nM; in assay [15] it was above 2000 nM; in assay [6], above 2000 nM; in [7], 337 nM; in assay [8] it was 920 nM. Besides, the Kd in assay [16] was 894 nM; in [9] it was above 2000 nM; in assay [10], 455 nM; in [11], 27 nM.
Turning to IgG1-WT-afuc (antibody), the Kd was 552 nM in assay [12]; above 2000 nM in assay [1]; 16.6 nM in assay [13]; 1010 nM in assay [2]; 80.7 nM in assay [14]; 617 nM in assay [3]. Besides, the Kd in assay [4] was 1000 nM; in assay [5], 32.9 nM; in [15], 625 nM; in [6], above 2000 nM; in assay [7], 17.8 nM; in assay [8], 1990 nM. In addition, the Kd is 102 nM in [16], above 2000 nM in assay [9], 1020 nM in [10] and 33.3 nM in assay [11].
As to IgG1-ΔG236 (antibody), the equilibrium dissociation constant (Kd) in [5] and in assay [11] was above 2000 nM in each case.
